Test results taken from the supplement of paper PMC10567573.

B1: GNAI1 (parent)
chain: WIHCFEGVTAIIFCVALSDYDLVL
B2: EPB41L3 (parent)
chain: SMQCKVILLDGSEYTCDVEKRSRG

Variants of: B1
Assay: protein stability index of a GFP-peptide fusion (GPS, HEK-293T) (PSI 1-6); higher = more stable
Conditions: c terminus: a fixed tail appended
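Further: lentivirally expressed fusions sorted by FACS into six bins by GFP to DsRed ratio, PSI derived from sequencing read proportions per bin multiplied by bin number.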

Protein stability index of substitutions, site by site:
W1: M 2.91, S 1.5, Q 1.72, K 3.4, P 3.51, V 3.35, N 2.99, T 2.32, A 3.11, Y 3.22, L 3.13, F 2.29, D 3.44, H 3.09, E 2.82, G 2.14, I 4.21
L17: Y 2.83, F 4.72, P 3.56, D 3.5, Q 3.55, N 2.67, H 2.71, E 3.42, T 2.04, R 2.51, A 3.93, V 3.19, K 2.55, W 3.09
I12: H 1.71, E 4.44, L 3.2, F 3.41, P 4.32, T 1.79, K 1.93, W 2.95, N 2.9, R 5.41, Q 1, S 2.84, Y 3.14
V15: Q 3.42, N 3.17, T 2.03, D 2.61, F 3.93, P 3.22, I 3.06, M 1.77, H 3.01, C 3.06, K 3.22, Y 3.25
C14: F 3.23, N 2.56, Q 2.43, S 3.26, L 1.8, D 4.12, G 2.52, R 4.07, P 2.46, T 4.02, A 1.32, I 3.89, M 1.93, H 2.66, Y 3.37
T9: Y 2.83, C 2.57, A 2.01, H 3.23, Q 2.66, K 2.17, D 3.05, F 3.82, W 3.23, G 2.84, S 2, I 4.15, R 2.51
C4: P 2.69, R 2.97, E 2.83, Y 2.43, M 2.25, G 3.37, K 3.1, S 3.29, H 2.22, Q 3.17, W 4.22, T 2.39, N 3.76, F 2.8
I11: K 3.52, A 1.48, M 3.01, H 3.5, F 3.26, N 3.83, C 3.28, E 2.67, T 1.61, S 4.32, P 2.79, Q 1.86, D 3.47, Y 3.17, V 3.49
I2: A 2.9, Y 3.56, F 1.63, T 2.12, S 2.82, L 1.83, G 1.7, Q 3.22, E 3.25, D 2.21, H 2.9, R 2.34
G7: T 2.51, E 3.19, I 4.42, Q 2.28, P 5.18, S 2.44, C 4.35, R 2.02, L 2.54, H 2.92, D 3.39, M 1.99, Y 2.62
F13: N 2.17, K 4.12, P 2.43, S 2.34, E 1.84, I 4.07, Q 3.46, T 2.07, C 2.64, V 2.83, G 2.34
A16: D 2.96, V 1.64, T 3.18, K 4.07, G 3.14, S 3.92, L 3.16, Y 4.61, M 2.41, Q 2.56, H 1.78, N 2.25
V8: N 2.3, M 2.09, F 3.11, G 1.82, P 2.99, I 3.14, D 2.79, L 2.78, Q 3.32, R 3.63, C 3.33, K 1.95, S 1.65, A 2.56, Y 2.2
F5: I 3.65, N 2.79, P 3.42, Q 2.79, M 2.91, S 2.75, K 2.11, A 3.47, T 2.87, C 1.78, D 2.6, H 3.07
S18: I 4.92, D 2.67, A 1.86, T 2.95, N 2.34, P 2.3, L 4.7, F 1.9, E 4.41, Q 4.04
A10: I 1.8, L 4.17, C 4.03, D 1.51, Q 2.09, G 2.08, W 2.06, S 1.82, Y 2.76, F 2.31, K 2.31, T 2.48, N 3.19
H3: I 2.8, E 3.35, N 3.58, T 3.21, Y 3.39, K 3.35, D 3.95, F 1.75, C 1.69, V 2.98
E6: G 2.32, R 3.24, K 1.26, D 2.74, N 3.63, V 2.97, T 2.2, M 2.6, I 3.12, Q 1.76, Y 2.48, F 1.87, L 4.47, C 1.95, A 2.75

Variants of: B2
Assay: as above
Conditions: c terminus: a fixed tail appended

Protein stability index of substitutions, site by site:
S22: M 2.4, W 2.11, V 2.12, D 2.52, R 3.11, G 3.02, T 3.63, F 2.38, L 2.08, N 3.47, I 2.16, E 3.75, Y 2.38, H 2.89, P 2.56, A 2.29, C 2.09
K20: W 1.02, D 3.36, M 2.04, C 2.15, N 3.04, P 2.49, T 3.66, A 2.06, S 2.52, Q 2.6, V 2.11, H 2.87, L 1.67, I 1.21, F 1.43, E 3.26
G24: E 3, F 2.47, N 3.27, M 2.51, S 3.48, L 2.47, I 1.98, C 2.56, Y 2.25, V 2.83, K 2.99, T 3.25, Q 2.17, W 2.88, D 2.37, A 3.43, R 2.84, P 2.47, H 2.47
R23: F 2.07, H 3.31, T 3.61, L 2.8, D 3.51, C 3.04, K 3.39, V 2.88, A 3.05, P 2.51, Q 2.87, N 2.52, M 2.72, E 2.63, S 3.17, I 2.45, Y 2.22
R21: T 2.84, I 1.88, K 3.56, G 2.73, P 3.06, Q 2.55, V 2.19, Y 2.09, D 3.49, M 1.88, N 1.92, E 3.09, C 2.86, W 1.57, L 2.31, H 2.72
E19: L 1.99, N 2.29, W 2.11, K 2.34, Q 2.5, P 2.11, M 2.14, T 1.54, I 1.93, Y 2.14, R 2.15, V 2.35, S 2.6
